Biological target: T1, CADM1-Fc (human (by the printed RefSeq entry), UniProt Q9BY67-1 45-374)
T1 construct: signal peptide in the construct; CADM1 extracellular domain, NP_055148, 1-374 a.a; Human IgG2-Fc fragment from pFUSE-hIgG2-Fc1; Glycosylated; also called cell adhesion molecule 1 extracellular domain fused with Fc; source: FreeStyle 293-F cells, transiently transfected, purified from the supernatant (Protein G Sepharose); not shown: Fc (human IgG2), C-terminal, kept
T1 sequence (looked up): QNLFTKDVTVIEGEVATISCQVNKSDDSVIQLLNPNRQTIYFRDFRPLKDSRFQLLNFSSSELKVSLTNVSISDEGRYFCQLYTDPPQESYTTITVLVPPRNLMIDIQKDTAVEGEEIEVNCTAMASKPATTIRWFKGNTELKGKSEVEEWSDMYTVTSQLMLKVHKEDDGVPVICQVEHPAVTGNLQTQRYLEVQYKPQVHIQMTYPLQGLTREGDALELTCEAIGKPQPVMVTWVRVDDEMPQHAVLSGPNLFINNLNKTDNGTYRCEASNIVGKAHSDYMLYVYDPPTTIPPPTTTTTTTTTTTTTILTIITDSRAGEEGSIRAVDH
Test: SPR; SPR imaging (OpenPlex); the 10 IgSF-Fc proteins (7-24 μM) spotted in hexaplicate and immobilised by amine coupling; 2.4 μM CADM1-Fc injected for 4 min; 25°C; PBS with 0.2% BSA and 0.02% Tween20, 50 μL/min; signal of normal human IgG subtracted
Details: both partners purified

B1: CRTAM-Fc (Fc fusion, human (by the printed RefSeq entry), UniProt O95727-1 18-287, looked up)
chain: SLTNHTETITVEEGQTLTLKCVTSLRKNSSLQWLTPSGFTIFLNEYPALKNSKYQLLHHSANQLSITVPNVTLQDEGVYKCLHYSDSVSTKEVKVIVLATPFKPILEASVIRKQNGEEHVVLMCSTMRSKPPPQITWLLGNSMEVSGGTLHEFETDGKKCNTTSTLIIHTYGKNSTVDCIIRHRGLQGRKLVAPFRFEDLVTDEETASDALERNSLSSQDPQQPTSTVSVTEDSSTSEIDKEEKEQTTQDPDLTTEANPQYLGLARKKSG
notes: signal peptide in the construct; CRTAM extracellular domain, NP_062550, 1-287 a.a; Human IgG2-Fc fragment from pFUSE-hIgG2-Fc1; also called class-I MHC-restricted T-cell-associated molecule; source: FreeStyle 293-F cells, transiently transfected, purified from the supernatant (Protein G Sepharose); not shown: Fc (human IgG2), C-terminal, kept
- Kd: 3.3 nM
- koff: 0.00011 s⁻¹
- kon: 31000 M⁻¹ s⁻¹

From paper PMC6090299, “Quantitative Analysis of Interaction Between CADM1 and Its Binding Cell-Surface Proteins Using Surface Plasmon Resonance Imaging” (Frontiers in Cell and Developmental Biology, 2018)
